How the values were obtained:
CD40/Fc fusion protein [1] = molecular target: T1, CD40/Fc fusion protein (human, UniProt P25942 21-193); experiment: biosensor (BIAcore), CD40/Fc captured on goat anti-human IgG1 Fc; equilibrium binding curve, left panel
T1 construct: extracellular domain; also called s CD40/Fc; C40/Fc
Method: (§1) This example illustrates the binding affinities of several different CD40-L constructs. Affinity experiments were conducted by biospecific interaction analysis (BIA) using a biosensor, an instrument that combines a biological recognition mechanism with a sensing device or transducer. An exemplary biosensor is BIAcore™, from Pharmacia Biosensor AB (Uppsala, Sweden; see Faigerstam L. G., Techniques in Protein Chemistry II, ed. J. J. Villafranca, Acad. Press, NY, 1991). BIAcore™ uses the optical phenomenon surface plasmon resonance (Kretschmann and Raether, Z. Naturforschung, Teil. A 23:2135, 1968) to monitor the interaction of two biological molecules.
(§2) The biosensor chips were coated with goat anti-human IgG₁ Fc, which was used to bind CD40/Fc (prepared as described in Example 1) to the chip. The different constructs of CD40-L were then added at increasing concentrations; the chip was regenerated between the different constructs by the addition of sodium hydroxide. Two separate experiments were performed. […] The resultant data were analyzed to determine the affinity and association rate constants of the different CD40-L constructs. […]

CD40/Fc fusion protein [2] = molecular target: T1, CD40/Fc fusion protein; experiment: BIAcore, CD40/Fc captured by goat anti-human IgG1 Fc; first experiment
Method: as §1, §2

T1 sequence (P25942 other isoform, or with tags, fused parts or gaps limits assumed): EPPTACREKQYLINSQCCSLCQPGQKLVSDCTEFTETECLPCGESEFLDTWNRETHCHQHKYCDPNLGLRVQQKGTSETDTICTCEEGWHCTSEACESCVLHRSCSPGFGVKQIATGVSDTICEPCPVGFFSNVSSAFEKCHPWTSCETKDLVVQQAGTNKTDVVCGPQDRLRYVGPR

| Binder | EC50 (read off the curve) (CD40/Fc fusion protein [1]) [nM] | Site 1 (mol/mol CD40/Fc) (CD40/Fc fusion protein [2]) | Site2 (mol/mol CD40/Fc) (CD40/Fc fusion protein [2]) |
| --- | --- | --- | --- |
| Trimeric human CD40-L (ligand, also called trimeric CD40-L; CD40-L trimer) not shown | ~10 | – | – |
| Dimeric murine CD40-L (Fc fusion, not shown: a dimerising Fc or GST, also called Murine Dimer) chain (part 1 of 2): DYKDDDDK chain (part 2 of 2): GGGGSGGGGSGGGGSSSHRRLDKVEEEVNLHEDFVFIKKLKRCNKGEGSLSLLNCEEMRRQFEDLVKDITLNKEEKKENSFEMQRGDEDPQIAAHVVSEANSNAASVLQWAKKGYYTMKSNLVMLENGKQLTVKREGLYYVYTQVTFCSNREPSSQRPFIVGLWLKPSSGSERILLKAANTHSSSQLCEQQSVHLGGVFELQAGASVFVNVTEASQVIHRVGFSSFGLLKL | – | 0.05 | 0.14 |
